Experimental data taken from article PMC11709261.
Where two headings read alike, the source gives them in different places.

Tests used:
Assay in all cases: two-hybrid; bacterial adenylate cyclase two-hybrid (BACTH) in E. coli BTH101 (cya) or derivatives (ΔdsbA AP58, ΔdjlA AP63, rcsB::tet EAW1, rcsC::tet EAW2, rcsF::cat EAW4); proteins fused at their C-terminus to T18 or T25; some sets with DjlA or DjlA variants co-expressed downstream of IgaA-T18; overnight growth in LB with 0.5 mM IPTG at 30°C; beta-galactosidase (ONPG, OD420 kinetics at 28°C), plotted relative to IgaA/RcsD
[1] = molecular target: RcsD (E. coli) (UniProt P39838)
Sequence of UniProt P39838 (P39838 whole entry): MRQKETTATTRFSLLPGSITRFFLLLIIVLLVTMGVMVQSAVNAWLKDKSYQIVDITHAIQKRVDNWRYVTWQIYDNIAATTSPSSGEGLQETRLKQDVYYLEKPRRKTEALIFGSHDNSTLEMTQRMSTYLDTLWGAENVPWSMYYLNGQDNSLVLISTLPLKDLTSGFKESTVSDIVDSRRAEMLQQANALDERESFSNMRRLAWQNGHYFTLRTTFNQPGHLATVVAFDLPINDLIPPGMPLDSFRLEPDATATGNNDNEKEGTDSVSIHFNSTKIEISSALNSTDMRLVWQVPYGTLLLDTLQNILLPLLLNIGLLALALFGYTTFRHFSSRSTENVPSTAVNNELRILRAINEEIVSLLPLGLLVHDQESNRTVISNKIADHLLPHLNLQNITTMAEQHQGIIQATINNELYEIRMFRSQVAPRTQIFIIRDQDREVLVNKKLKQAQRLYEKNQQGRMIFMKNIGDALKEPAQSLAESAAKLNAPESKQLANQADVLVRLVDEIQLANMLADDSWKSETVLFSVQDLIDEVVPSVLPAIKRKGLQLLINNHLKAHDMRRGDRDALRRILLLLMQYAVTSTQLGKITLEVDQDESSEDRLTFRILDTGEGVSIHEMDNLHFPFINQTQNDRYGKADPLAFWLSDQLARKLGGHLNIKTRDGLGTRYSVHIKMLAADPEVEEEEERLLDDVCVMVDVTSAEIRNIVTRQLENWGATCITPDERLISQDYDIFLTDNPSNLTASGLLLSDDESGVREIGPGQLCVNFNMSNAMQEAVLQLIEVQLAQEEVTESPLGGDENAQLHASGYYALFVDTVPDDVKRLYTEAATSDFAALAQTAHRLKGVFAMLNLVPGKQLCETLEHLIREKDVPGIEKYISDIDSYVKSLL

[2] = molecular target: RcsD (E. coli) (UniProt P39838); remark: listed apart in the source
[3] = molecular target: RcsD (E. coli) (UniProt P39838); remark: listed apart in the source
[4] = molecular target: RcsD (E. coli) (UniProt P39838); remark: listed apart in the source
[5] = molecular target: RcsD (E. coli) (UniProt P39838); remark: listed apart in the source
[6] = molecular target: RcsD (E. coli) (UniProt P39838); remark: listed apart in the source

beta-galactosidase activity (BACTH) (units (1000x the slope of OD420)) [1]: 490
beta-galactosidase activity (BACTH) (units (1000x the slope of OD420)) [2]: 580
beta-galactosidase activity (BACTH) (units (1000x the slope of OD420)) [3]: 578
beta-galactosidase activity (BACTH) (units (1000x the slope of OD420)) [4]: 569
beta-galactosidase activity (BACTH) [5]: 533 units
beta-galactosidase activity (BACTH) (units (1000x the slope of OD420)) [5]: 545
beta-galactosidase activity (BACTH) (units (1000x the slope of OD420)) [6]: 577
Substance: IgaA (natural protein)
